Experimental data as given in patent US20250388676A1 (Sanofi, published 2025).

T1: human GITR (human, UniProt Q9Y5U5 26-241)
T1 sequence (looked up): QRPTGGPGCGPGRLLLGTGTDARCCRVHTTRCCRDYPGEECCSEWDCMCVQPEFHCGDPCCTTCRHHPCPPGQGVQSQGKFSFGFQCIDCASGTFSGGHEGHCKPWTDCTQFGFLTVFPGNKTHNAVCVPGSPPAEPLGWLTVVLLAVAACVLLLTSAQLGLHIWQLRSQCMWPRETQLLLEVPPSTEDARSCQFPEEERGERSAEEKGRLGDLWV


Legend:
cynomolgus GITR [1] = molecular target: cynomolgus GITR (cynomolgus monkey); experiment: cell-based or functional assay
human PD-1 [2] = molecular target: T2, human PD-1 (human, UniProt Q15116 25-288); experiment: cell-based or functional assay
human GITR [3] = molecular target: T1, human GITR; experiment: cell-based or functional assay
cynomolgus PD-1 [4] = molecular target: T3, cynomolgus PD-1 (cynomolgus monkey); experiment: flow cytometry on pre-B 300.19 cells expressing cyno PD-1, anti-human IgG Fc detection, 4PL fit
T3 construct: whole, on cells; also called cyno PD-1; cyPD-1
Protocol: (§1) Binding properties of the bispecific molecules and controls to multiple targets expressed on cell surfaces were evaluated with flow cytometry. […] Cell suspensions were analyzed with iQue Screener 3 (Sartorius, Intellicyt). In each washing step, plates were centrifuged for 2 minutes at 300×g at 4° C., supernatants discarded and buffer dispensed by Biotek ELX405 microplate washer (BioTek). Other reagents were added either manually or with ViaFlo (Integra). EC50s were estimated by dose response modelling. Curves were fit using 4 parameter logistic regression in GraphPad (GraphPad Software Inc.).

human PD-1 [5] = molecular target: T2, human PD-1; experiment: flow cytometry on pre-B 300.19 cells expressing human PD-1, anti-human IgG Fc detection, 4PL fit
Protocol: as §1

cynomolgus GITR [6] = molecular target: T4, cynomolgus GITR (cynomolgus monkey); experiment: flow cytometry on NFkB-NlucP/HEK293 cells expressing cyno GITR, anti-human IgG Fc detection, 4PL fit
T4 construct: whole, on cells; also called cyno GITR; cyGITR
Protocol: as §1

human GITR [7] = molecular target: T1, human GITR; experiment: flow cytometry on NFkB-NlucP/HEK293 cells expressing human GITR, anti-human IgG Fc detection, 4PL fit
Protocol: as §1

human GITR [8] = molecular target: T1, human GITR; experiment: receptor occupancy by flow cytometry on activated splenic CD4+ T cells of hGITR/hPD-1 KI mice; free GITR detected with competing Anti-hGITR-BV605, total GITR with non-competing Anti-hGITR NANOBODY-A488 [panel B]
Description: (§2) Anti-hGITR NANOBODY®-A488 as non-competing agent detecting total GITR Activated T cells were then washed and analyzed on a Cytek® Aurora flow cytometer.

human PD-1 [9] = molecular target: T2, human PD-1; experiment: receptor occupancy by flow cytometry on activated splenic CD4+ T cells of hGITR/hPD-1 KI mice; free PD-1 detected with competing Anti-hPD-1-BV421, total PD-1 with non-competing Anti-hPD-1 NANOBODY-A647 [panel A]
Description: as §2

human GITR [10] = molecular target: T1, human GITR; experiment: receptor occupancy by flow cytometry on activated splenic CD8+ T cells of hGITR/hPD-1 KI mice; free GITR detected with competing Anti-hGITR-BV605, total GITR with non-competing Anti-hGITR NANOBODY-A488 [panel B]
Description: as §2

human PD-1 [11] = molecular target: T2, human PD-1; experiment: receptor occupancy by flow cytometry on activated splenic CD8+ T cells of hGITR/hPD-1 KI mice; free PD-1 detected with competing Anti-hPD-1-BV421, total PD-1 with non-competing Anti-hPD-1 NANOBODY-A647 [panel A]
Description: as §2

cynomolgus PD-1 [12] = molecular target: T3, cynomolgus PD-1; experiment: flow cytometry on pre-B 300.19 cells expressing cyno PD-1, detection with anti-human IgG Fc F(ab')2 [panel B]
human PD-1 [13] = molecular target: T2, human PD-1; experiment: flow cytometry on pre-B 300.19 cells expressing human PD-1, detection with anti-human IgG Fc F(ab')2 [panel A]

T2 sequence (Q15116 25-288 limits assumed): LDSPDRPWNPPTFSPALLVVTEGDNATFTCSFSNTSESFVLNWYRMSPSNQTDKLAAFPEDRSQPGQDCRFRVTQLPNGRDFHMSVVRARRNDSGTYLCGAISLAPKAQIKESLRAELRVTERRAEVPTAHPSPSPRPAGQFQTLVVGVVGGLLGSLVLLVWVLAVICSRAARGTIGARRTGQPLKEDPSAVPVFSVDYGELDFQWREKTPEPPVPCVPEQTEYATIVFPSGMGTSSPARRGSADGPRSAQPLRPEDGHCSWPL

cyGITR EC50 (reporter assay) (cynomolgus GITR [1]) [nM] | hPD-1 IC50 (reporter assay) (human PD-1 [2]) [nM] | hGITR EC50 (reporter assay) (human GITR [3]) [nM] | EC50 (cynomolgus PD-1 [4]) [nM] | EC50 (human PD-1 [5]) [nM] | EC50 (cynomolgus GITR [6]) [nM] | EC50 (human GITR [7]) [nM] | EC50 (read off the curve) (human GITR [8]) [nM] | EC50 (read off the curve) (human PD-1 [9]) [nM] | EC50 (read off the curve) (human GITR [10]) [nM] | EC50 (read off the curve) (human PD-1 [11]) [nM] | EC50 (read off the curve) (cynomolgus PD-1 [12]) [nM] | EC50 (read off the curve) (human PD-1 [13]) [nM] | Binder
0.0083 | 0.5 | 0.0077 | 0.37 | 0.24 | 0.034 | 0.034 | ~0.2 | ~0.03 | ~0.2 | ~0.03 | – | – | GITRL/anti-PD-1 mAb2 (bispecific antibody, human IgG1, kappa, L234A L235A, Single-chain GITRL trimer inserted between VH and CH1 of each heavy chain; bivalent for PD-1, hexavalent for GITR; also called GITRL trimer/anti-PD-1 mAb2; single-chain GITRL trimer/anti-PD-1 mAb2) heavy: not shown light: EIVLTQSPATLSLSPGERATLSCGASQSVPINFLAWYQQKPGLAPRLLIYEASSRHTGIPDRFSGSGSGTDFTLTISRLEPEDFAVYYCGQYGSSPYTFGQGTKLEIKRTVAAPSVFIFPPSDEQLKSGTASVVCLLNNFYPREAKVQWKVDNALQSGNSQESVTEQDSKDSTYSLSSTLTLSKADYEKHKVYACEVTHQGLSSPVTKSFNRGEC
0.01 | 0.56 | 0.0087 | 0.58 | 0.33 | 0.014 | 0.014 | – | – | – | – | – | – | GITRL/anti-PD-1 mAb1 (bispecific antibody, human IgG1, kappa, L234A L235A, Single-chain GITRL trimer inserted between VH and CH1 of each heavy chain; bivalent for PD-1, hexavalent for GITR; also called GITRL trimer/anti-PD-1 mAb1; single-chain GITRL trimer/anti-PD-1 mAb1) heavy: not shown light: EIVLTQSPATLSLSPGERATLSCGASQSVSINFLAWYQQKPGLAPRLLIYEASSRATGIPDRFSGSGSGTDFTLTISRLEPEDFAVYYCQQYGSSPYTFGQGTKLEIKRTVAAPSVFIFPPSDEQLKSGTASVVCLLNNFYPREAKVQWKVDNALQSGNSQESVTEQDSKDSTYSLSSTLTLSKADYEKHKVYACEVTHQGLSSPVTKSFNRGEC
– | – | – | – | – | – | – | – | ~0.4 | – | ~0.3 | ~0.4 | ~0.2 | GITRLmut/anti-PD-1 mAb2 (antibody, V domains shown) VH: QLQLQESGPGLVKPSETLSLTCTVSGGSISSSSYFWGWIRQPPGKGLEWIGSIYRSGSTYYNPSLKSRVTISVDTSKNQFSLKLSSVTAADTAVYYCARGITGDPGDYWGQGTLVTVSS VL: EIVLTQSPATLSLSPGERATLSCGASQSVPINFLAWYQQKPGLAPRLLIYEASSRHTGIPDRFSGSGSGTDFTLTISRLEPEDFAVYYCGQYGSSPYTFGQGTKLEIK
– | – | – | – | – | – | – | – | – | – | – | ~0.5 | ~0.3 | GITRLmut/anti-PD-1 mAb1 (antibody, V domains shown) VH: QLQLQESGPGLVKPSETLSLTCTVSGGSISTSSYFWGWIRQPPGKGLEWIGSIYRSGSTYYNPSLKSRVTISVDTSKNQFSLKLSSVTAADTAVYYCARGITGDPGDYWGQGTLVTVSS VL: EIVLTQSPATLSLSPGERATLSCGASQSVSINFLAWYQQKPGLAPRLLIYEASSRATGIPDRFSGSGSGTDFTLTISRLEPEDFAVYYCQQYGSSPYTFGQGTKLEIK
